In US20220289791A1, “LACTATE DEHYDROGENASE INHIBITOR POLYPEPTIDES FOR USE IN THE TREATMENT OF CANCER” (UNIVERSITÉ CATHOLIQUE DE LOUVAIN, priority 2019, published 2022):
*1 amine or outer side, *2 acyl side, *3 side chain or, on linkers, in order; H or OH if unused. Where a SMILES comes first, the peptide text is derived from it. Bridges are numbered along the chain shown (N, C = ends). Where no end group is shown, it is not given here. [ ]: non-standard residue; d: D form. α,α'‑bisbromoxylene = α,α'-bisbromoxylene, a linker that cyclises the cysteines (bisbromoxylene cysteine cyclisation); C6F4(1,4-diyl) = Fc1c(F)c([*:2])c(F)c(F)c1[*:1]; mXylylene = c1cc(C[*:1])cc(C[*:2])c1; oXylylene = c1ccc(C[*:2])c(C[*:1])c1; pXylylene = c1cc(C[*:2])ccc1C[*:1]; Ala(cPr) = N[C@@H](CC1CC1)C(=O)O; tBuAla = CC(C)(C)C[C@H](N)C(=O)O; Aib = CC(C)(N)C(=O)O

Assays:
[1] = molecular target: truncated LDHB (LDHBtr) (Homo sapiens, UniProt P07195); assay: Microscale thermophoresis (MST), Example 2, macrocycles against truncated LDHB; format: binding; conditions: for Kd: MST traces at 10 s to 20 s on time
truncated LDHB (LDHBtr), sequence (P07195 21-334): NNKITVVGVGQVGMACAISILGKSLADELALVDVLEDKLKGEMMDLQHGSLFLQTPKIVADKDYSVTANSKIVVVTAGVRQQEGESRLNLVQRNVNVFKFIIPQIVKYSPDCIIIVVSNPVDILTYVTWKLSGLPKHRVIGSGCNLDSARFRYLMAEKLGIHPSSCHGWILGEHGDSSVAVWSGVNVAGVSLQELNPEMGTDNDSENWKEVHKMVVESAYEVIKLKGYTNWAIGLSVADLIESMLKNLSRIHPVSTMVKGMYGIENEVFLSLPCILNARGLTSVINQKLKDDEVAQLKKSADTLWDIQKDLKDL
Method: MST measurements were performed on a Nanotemper Monolith NT.115 instrument (NanoTemper Technologies®) using Red-dye-NHS fluorescent labeling. Each LDH sample, purified to homogeneity, was labeled with the Monolith Red-dye-NHS 2nd generation labeling dye (NanoTemper Technologies®), according to the manufacturer's instructions. Measurements were performed in 50 mM sodium phosphate, pH 7.6, and 100 mM NaCl containing 0.05% Tween-20 in premium-treated capillaries (NanoTemper Technologies®). The final concentrations of either labeled protein in the assay were 100 nM. The ligands (NADH and peptides) were titrated in 1:1 dilutions following manufacturer's recommendations. All binding reactions were incubated for 5 min at room temperature after loading into capillaries. Experiments were performed in triplicates using 40% LED power, medium MST power, Laser On time 20 s and Laser Off time 3 s. Peptides were evaluated for their thermophoretic pattern, and Kd's were extracted from raw data at a 10 to 20 s MST on time according to manufacturer's instructions. Regarding interaction of 7 with LDH5, Kd was extracted from the raw fluorescence. A denaturation test was performed accordingly to manufacturer recommendation and excluded any nonspecific spectral interaction between 7 and the red-dye. All Kd's of interacting macrocycles and peptides were obtained in triplicate and corrected by taking into account the molecular weight of the TFA counter ion.

[2] = molecular target: T1, LDHBtr (Homo sapiens, UniProt P07195); assay: Microscale thermophoresis (MST), Example 1; format: binding; conditions: linear peptides; read-out: Kd using MST experiment
T1 sequence (P07195 21-334): as above
Method: MST measurements were performed on a Nanotemper Monolith NT.115 instrument (Nanotemper Technologies®, GmbH) using Red-dye-NHS fluorescent labeling. Each LDH (WT or truncated) sample, purified to homogeneity, was labeled with the Monolith RED-NHS 2nd generation labeling dye according to the supplied protocol (Nanotemper Technologies®, GmbH). Measurements were performed in 50 mM Na-Phosphate pH 7.6 and 100 mM NaCl containing 0.05% Tween-20 in premium treated capillaries (Nanotemper Technologies®, GmbH). The final concentrations of either labeled protein in the assay were 100 nM. The ligands (NADH and peptides) were titrated in 1:1 dilutions following manufacturer's recommendations. All binding reactions were incubated 5′ at room temperature after loading into capillaries. Experiments were performed in triplicates using 40% LED power and medium MST power, LaserOn time was 20 sec, Laser Off time 3 sec. Linear octapeptides were evaluated for their thermophoretic pattern.

[3] = molecular target: T1, LDHBtr; assay: NMR WaterLOGSY binding screening
Method: All experiments were acquired on a Bruker Ascend Avance III 600 MHz equipped with a broadband cryoprobe (Bruker® GmBH, Germany)
NMR WaterLOGSY was performed on samples prepared in 10% D2O buffer containing 50 mM sodium phosphate buffer, pH 7.6 and 100 mM NaCl. The concentration of LDH subunits was 15-20 μM. Ligand binding was detected using a NMR WaterLOGSY ephogsygpno.2 advance-version sequence with a […]. Water signal suppression was achieved using excitation sculpting scheme and a 50 ms spinlock was used to suppress protein background signal. For each experiment, 512 scans were collected to yield a 16K points FID. NMR WaterLOGSY intensity was corrected by plotting the intensity difference of the ligand NMR WaterLOGSY spectra recorded in the presence and absence of protein.
For NMR WaterLOGSY screening experiments a correction factor was applied to account for slight concentration variation between samples. To do so, 8 scans 1H NMR spectra with 50 ms spinlock were recorded before NMR WaterLOGSY experiments. The intensity ratio of the aliphatic region (0.700 ppm to 0.955 ppm) with and without protein was used as a correction factor to compare the NMR WaterLOGSY intensity of the polypeptides of interest with and without LDH subunits. An arbitrary threshold of 0.1, corresponding to a 10% decrease in the NMR WaterLOGSY signal intensity between the spectra with and without protein, was set to discriminate between binders and non-binders.

[4] = linear peptides at 800 μM, LDHBtr 15 μM

Compound	Binding using WaterLOGSY (800 μM) [3, 4]	other results
CC[C@H](C)[C@H](NC(=O)[C@H](CC(C)C)NC(=O)[C@H](CCCCN)NC(=O)[C@@H]1CSc2c(F)c(F)c(c(F)c2F)SC[C@H](N)C(=O)N[C@@H]([C@@H](C)O)C(=O)N[C@@H](CC(C)(C)C)C(=O)N[C@@H](CCCCN)C(=O)N1)C(N)=O [CT-44, CT(mlL)KCKLI] (H-CT[tBuAla]KCKLI-NH2; linker 1-5 via C6F4(1,4-diyl); N-terminus assumed)		MST binding to LDHBtr [1]: did not affect the binding properties
CC[C@H](C)[C@H](NC(=O)[C@H](CC1CC1)NC(=O)[C@H](CCCCN)NC(=O)[C@@H]1CSc2c(F)c(F)c(c(F)c2F)SC[C@H](N)C(=O)N[C@@H]([C@@H](C)O)C(=O)N[C@@H](CC(C)C)C(=O)N[C@@H](CCCCN)C(=O)N1)C(N)=O [CT-45, CTLKCK(cpA)I] (H-CTLKCK[Ala(cPr)]I-NH2; linker 1-5 via C6F4(1,4-diyl); N-terminus assumed)		MST binding to LDHBtr [1]: unaltered Kd value, or even a slightly improved Kd value
CC[C@H](C)[C@H](NC(=O)[C@H](C)NC(=O)[C@H](CCCCN)NC(=O)[C@H](CCC(=O)O)NC(=O)[C@H](CCCCN)NC(=O)[C@H](CC(C)C)NC(=O)[C@@H](NC(=O)[C@H](C)N)[C@@H](C)O)C(N)=O [LB8-A6, ATLKEKAI] (H-ATLKEKAI-NH2)		Kd [2]: > 10000 µM
CC[C@H](C)[C@H](NC(=O)[C@H](CC(C)C)NC(=O)[C@H](CCCCN)NC(=O)[C@H](CCC(=O)O)NC(=O)[C@H](CCCCN)NC(=O)CNC(=O)[C@@H](NC(=O)[C@H](C)N)[C@@H](C)O)C(N)=O [LB8-G3, ATGKEKLI] (H-ATGKEKLI-NH2)		Kd [2]: > 10000 µM
CC[C@H](C)[C@H](NC(=O)[C@H](CC(C)C)NC(=O)[C@H](CCCCN)NC(=O)[C@H](CCC(=O)O)NC(=O)[C@H](CCCCN)NC(=O)[C@H](CC(C)C)NC(=O)[C@@H](NC(=O)[C@H](C)N)[C@@H](C)O)C(=O)N[C@@H](C)C(=O)N1CCC[C@H]1C(=O)N[C@H](C(=O)N[C@@H](C)C(=O)N[C@@H](CCC(=O)O)C(N)=O)C(C)C [LB13, ATLKEKLIAPVAE] (H-ATLKEKLIAPVAE-NH2; N-terminus assumed)	+ (binders)	NMR WaterLOGSY signal / saturation transfer [3]: exact same NMR WaterLOGSY spectrum than LB19
CC[C@H](C)[C@H](NC(=O)[C@H](CC(C)C)NC(=O)[C@H](CCCCN)NC(=O)[C@H](CCC(=O)O)NC(=O)[C@@H]1CSCc2cccc(c2)CSC[C@H](N)C(=O)N[C@@H](C)C(=O)N[C@@H]([C@@H](C)O)C(=O)N[C@@H](CC(C)C)C(=O)N1)C(N)=O [MP6, CATLCEKLI] (H-CATLCEKLI-NH2; linker 1-5 via mXylylene)		Kd [1]: > 1000 µM
CC[C@H](C)[C@H](NC(=O)[C@H](CC(C)C)NC(=O)[C@H](CCCCN)NC(=O)[C@@H]1CSCc2ccccc2CSC[C@H](N)C(=O)N[C@@H]([C@@H](C)O)C(=O)N[C@@H](CC(C)C)C(=O)N[C@@H](CCCCN)C(=O)N1)C(N)=O [MP8, CTLKCKLI] (H-CTLKCKLI-NH2; linker 1-5 via oXylylene; N-terminus assumed)		Kd [1]: 25 µM
CC[C@H](C)[C@H](NC(=O)[C@H](CC(C)C)NC(=O)[C@H](CCCCN)NC(=O)[C@@H]1CSCc2ccc(cc2)CSC[C@H](N)C(=O)N[C@@H]([C@@H](C)O)C(=O)N[C@@H](CC(C)C)C(=O)N[C@@H](CCCCN)C(=O)N1)C(N)=O [MP9, CTLKCKLI] (H-CTLKCKLI-NH2; linker 1-5 via pXylylene; N-terminus assumed)		Kd [1]: 113 µM
CC[C@H](C)[C@H](NC(=O)[C@H](CC(C)C)NC(=O)[C@H](CCCCN)NC(=O)[C@@H]1CC(=O)NCCCC[C@H](NC(C)=O)C(=O)N[C@@H]([C@@H](C)O)C(=O)N[C@@H](CC(C)C)C(=O)N[C@@H](CCCCN)C(=O)N1)C(N)=O [MP10, Ac-KTLKDKLI] (Ac-KTLKDKLI-NH2; lactam 1-5)		Kd [1]: 142 µM
CC[C@H](C)[C@H](NC(=O)[C@H](CC(C)C)NC(=O)[C@H](CCCCN)NC(=O)[C@@H]1CCC(=O)N[C@@H](C)C(=O)N[C@@H]([C@@H](C)O)C(=O)N[C@@H](CC(C)C)C(=O)N[C@@H](CCCCN)C(=O)N1)C(N)=O [MP11, ATLKEKLI] (ATLKEKLI-NH2; lactam N-5)		Kd [1]: 465 µM
AALKEKLI [LB8-A1, LB8 structural analogue]	− (non-binders)	
ACLKECLI [VS-142-BisAlk, cyclic peptide, cysteines alkylated using α,α′ bisbromoxylene]		Binding using WaterLOGSY (800 μM) ([3]; cyclic peptides at 800 μM): + (binders)
ACTLKCKLI (linker 2-6 via α,α'‑bisbromoxylene (inferred)) [LT021, cyclic peptide, cysteines alkylated using α,α′ bisbromoxylene]		Binding using WaterLOGSY (800 μM) ([3]; cyclic peptides at 800 μM): + (binders)
ATAKEKLI (LB8-A2) [LB8 structural analogue]	+ (binders)	
ATL(Aib)E(Aib)LI (ATL[Aib]E[Aib]LI; not fully specified (C-terminus)) [LB8-Aib3, LB8 structural analogue]	+ (binders)	
ATL(Aib)EKLI (ATL[Aib]EKLI; not fully specified (C-terminus)) [LB8-Aib1, LB8 structural analogue]	+ (binders)	
ATLAEALI (LB8-A3-A5) [LB8 structural analogue]	+ (binders)	
ATLAEKLI (LB8-A3) [LB8 structural analogue]	+ (binders)	
ATLKAKLI (LB8-A4) [LB8 structural analogue]	+ (binders)	
ATLKDQLI [LA8, linear polypeptide]	+ (binders)	
ATLKDQLIYNLLKEEQTPQ (LA19) [linear polypeptide]	+ (binders)	
ATLKE(Aib)LI (ATLKE[Aib]LI; not fully specified (C-terminus)) [LB8-Aib2, LB8 structural analogue]	+ (binders)	
ATLKEALI (LB8-A5) [LB8 structural analogue]	+ (binders)	
ATLKEKL (LB8-AL7) [LB8 structural analogue]	− (non-binders)	
ATLKEKLA (LB8-A7) [LB8 structural analogue]	+ (binders)	
ATLKEKLG (LB8-G8) [LB8 structural analogue]	+ (binders)	
Ac-ATLKEKLI [Ac-LB8, LB8 structural analogue]	+ (binders)	
Ac-TLKEKLI [LB8-AcTI7, LB8 structural analogue]	− (non-binders)	
GTLKEKLI (LB8-G1) [LB8 structural analogue]	+ (binders)	
TLKEKLI (LB8-TI7) [LB8-T17, LB8 structural analogue]	− (non-binders)	
